Laboratory results: US7026443
Where two headings read alike, the source gives them in different places.

Assays:
HLA-A*0301 (human) [1] = experiment: competition with a 125I-labelled standard peptide for purified HLA-A*0301, bound and free separated by gel filtration
[2] = biological target: HLA-A*0201 (purified HLA class I molecule) (human); experiment: competition with 125I-labeled standard peptide for purified HLA-A*0201, gel filtration; ratio to the standard peptide
HLA-A*1101 (human) [3] = experiment: competition binding assay; purified HLA-A*1101, unlabeled peptide against 125I-labeled probe peptide, gel filtration
HLA-A*0301 (human) [4] = biological target: HLA-A*0301 (human)
HLA-A*1101 (human) [5] = biological target: HLA-A*1101 (human)
HLA-A*0301 (human) [6] = biological target: HLA-A*0301 (human); remark: listed apart in the source
HLA-A*1101 (human) [7] = experiment: competition with 125I-radiolabeled standard probe peptide for purified HLA-A*1101, gel filtration
HLA-A*0301 (human) [8] = experiment: competition against a 125I-labeled standard probe peptide for purified HLA-A*0301, gel filtration; relative binding
[9] = biological target: HLA-A*0201 (purified HLA class I molecule) (human); experiment: competition assay: unlabeled peptide inhibits binding of a 125I-labeled standard probe peptide to purified HLA-A*0201, gel filtration read-out
HLA-A*0301 (human) [10] = experiment: competition with 125I-labelled probe peptide for purified HLA, gel filtration; conditions: scale: ratio
HLA-A*1101 (human) [11] = experiment: as above; conditions: scale: ratio
HLA-A*0301 (human) [12] = experiment: competition with 125I-labeled standard peptide for purified HLA-A*0301, gel filtration
HLA-A*1101 (human) [13] = experiment: competition with 125I-labeled standard peptide for purified HLA-A*1101, gel filtration; conditions: scale: ratio
HLA-A*0301 (human) [14] = experiment: competition with 125I-labelled standard probe peptide for purified HLA-A*0301, gel filtration
HLA-A*0201 (human) [15] = experiment: competition with a 125I-labelled probe peptide for purified HLA-A*0201, gel filtration
HLA-A*0301 (human) [16] = experiment: competition with 125I-labelled standard peptide for purified HLA-A*0301, gel filtration
HLA-A*1101 (human) [17] = experiment: inhibition of 125I-labeled standard peptide binding to purified HLA-A*1101, gel filtration
[18] = biological target: purified HLA-A*0201 molecules (human)
HLA-A*0301 (human) [19] = experiment: competition with a 125I-labelled standard peptide for purified HLA-A*0301, gel filtration; value relative to the standard peptide
HLA-A*0101 (human) [20] = biological target: HLA-A*0101 (human)
HLA-A*1101 (human) [21] = experiment: competition with 125I-labelled standard probe peptide for purified HLA-A*1101, gel filtration
HLA-A*0301 (human) [22] = experiment: competition of unlabeled peptide against 125I-labeled standard probe peptide for purified HLA-A*0301, gel filtration
HLA-A*2402 (human) = experiment: inhibition of 125I-labelled standard peptide binding to purified HLA-A*2402, gel filtration
HLA-A*0101 (human) [23] = biological target: HLA-A*0101 (human); remark: listed apart in the source
HLA-A*0201 (human) [24] = experiment: competition with 125I-labelled standard peptide on purified HLA, gel filtration; conditions: remark: other sources report otherwise
HLA-A*0203 (human) = experiment: as above; conditions: remark: other sources report otherwise
HLA-A*0206 (human) = experiment: as above; conditions: remark: other sources report otherwise
HLA-A*1101 (human) [25] = biological target: HLA-A*1101 (human); remark: listed apart in the source
HLA-A*0201 (human) [26] = experiment: competition with a 125I-labeled standard peptide for purified HLA-A*0201, gel filtration; ratio to the standard peptide

B1: HPV18 E1 peptide … (position 10, 9 amino acids) (peptide)
peptide: EGTGCNGWF
modifications: not checked
relative binding ratio (IC50 of standard peptide / IC50 of test peptide) (ratio to standard peptide) (HLA-A*0301 (human) [1]): 0.0008

B2: HPV45 E1 peptide … (position 259, 10 amino acids) (peptide)
peptide: CLDCKWGVLI
modifications: not checked
relative binding ratio (IC50 of standard peptide / IC50 of test peptide) [2]: 0.0002

B3: HPV31 E1 position 10 peptide … (SEQ ID NO: 41699) (peptide)
peptide: EGTGCNGWFY
modifications: not checked
binding affinity ratio (relative to the standard peptide) (HLA-A*1101 (human) [3]): 0.0002

B4: HPV16 E1 peptide … (position 405, 9 amino acids) (peptide)
peptide: CATMCRHYK
modifications: not checked
binding affinity ratio (IC50 of standard peptide / IC50 of test peptide) (HLA-A*0301 (human) [4]): 0.0012 | binding affinity ratio (IC50 of standard peptide / IC50 of test peptide) (HLA-A*1101 (human) [5]): 0.0098 | binding affinity ratio (IC50 of standard peptide / IC50 of test peptide) (HLA-A*3101 (human)): 0.0077 | binding affinity ratio (IC50 of standard peptide / IC50 of test peptide) (HLA-A*3301 (human)): 0.01 | binding affinity ratio (IC50 of standard peptide / IC50 of test peptide) (HLA-A*6801 (human)): 0.0056 | relative binding ratio (IC50 of standard peptide / IC50 of test peptide) (ratio to standard peptide) (HLA-A*0301 (human) [6]): 0.0012

B5: HPV18 E1 peptide … (position 536, 9 amino acids) (peptide)
peptide: WTYFDTYMR
modifications: not checked
relative binding ratio (IC50 of standard peptide / IC50 of test peptide) (HLA-A*1101 (human) [7]): 0.012 | binding affinity ratio (IC50 of the standard peptide / IC50 of the test peptide) (HLA-A*0301 (human) [8]): 0.0005

B6: HPV31 E1 peptide … (position 542, 9 amino acids) (peptide)
peptide: LLITSNINA
modifications: not checked
relative binding ratio (IC50 of standard peptide / IC50 of test peptide) [9]: 0.0022

B7: HPV16 E1 peptide … (position 274, 9 amino acids) (peptide)
peptide: VVLLLVRYK
modifications: not checked
binding affinity ratio (relative to standard peptide) (HLA-A*0301 (human) [10]): 1 | binding affinity ratio (relative to standard peptide) (HLA-A*1101 (human) [11]): 0.36 | relative binding ratio (IC50 of standard peptide / IC50 of test peptide) (HLA-A*0301 (human) [12]): 1 | relative binding ratio (A*1101) (HLA-A*1101 (human) [13]): 0.36

B8: HPV18 E1 peptide … (position 10, 10 amino acids) (peptide)
peptide: EGTGCNGWFY
modifications: not checked
relative binding ratio (IC50 of standard peptide / IC50 of test peptide) (ratio to standard peptide) (HLA-A*0301 (human) [1]): 0.0005

B9: HPV45 E1 peptide … (position 10, 9 amino acids) (peptide)
peptide: EGTGCNGWF
modifications: not checked
binding affinity ratio (IC50 of standard peptide / IC50 of test peptide) (ratio to standard peptide) (HLA-A*0301 (human) [14]): 0.0008

B10: HPV18 E1 246 peptide … (SEQ ID NO: 3274) (peptide)
peptide: AIFGVNPTI
modifications: not checked
relative binding ratio (IC50 of standard peptide / IC50 of test peptide) (ratio to standard peptide) (HLA-A*0201 (human) [15]): 0.0021

B11: HPV16 E1 334 … (peptide)
peptide: GDTPEWIQR
modifications: not checked
binding affinity ratio (IC50 of standard peptide / IC50 of test peptide) (ratio to standard peptide) (HLA-A*0301 (human) [16]): 0.0008 | relative binding ratio (IC50 of standard peptide / IC50 of test peptide) (HLA-A*1101 (human) [17]): 0.0002

B12: HPV31 E1 peptide … (position 536, 9 amino acids) (peptide)
peptide: QLKCPPLLI
modifications: not checked
relative binding ratio (IC50 of standard peptide / IC50 of test peptide) [18]: 0.0049

B13: HPV45 E1 peptide … (position 265, 9 amino acids) (peptide)
peptide: GVLILALLR
modifications: not checked
relative binding ratio (IC50 of standard peptide / IC50 of test peptide) (HLA-A*0301 (human) [19]): 0.0058

B14: HPV16 E1 peptide … (position 404, 9 amino acids) (peptide)
peptide: DCATMCRHY
modifications: not checked
relative binding ratio (IC50 of standard peptide / IC50 of test peptide) (ratio to standard peptide) (HLA-A*0101 (human) [20]): 0.0011 | relative binding ratio (IC50 of standard peptide / IC50 of test peptide) (ratio to standard peptide) (HLA-A*0301 (human) [6]): 0.0001

B15: HPV31 E1 peptide … (position 246, 9 amino acids) (peptide)
peptide: SLACSWGMV
modifications: not checked
relative binding ratio (IC50 of standard peptide / IC50 of test peptide) [18]: 0.082

B16: HPV16 E1 peptide … (position 509, 9 amino acids) (peptide)
peptide: WLQPLADAK
modifications: not checked
binding affinity ratio (relative to standard peptide) (HLA-A*0301 (human) [10]): 0.0005 | binding affinity ratio (relative to standard peptide) (HLA-A*1101 (human) [11]): 0.0002 | relative binding ratio (IC50 of standard peptide / IC50 of test peptide) (HLA-A*0301 (human) [12]): 0.0005 | relative binding ratio (A*1101) (HLA-A*1101 (human) [13]): 0.0002

B17: HPV31 E6 peptide … (position 110, 9 amino acids) (peptide)
peptide: LCPEEKQRH
modifications: not checked
relative binding ratio (IC50 of standard peptide / IC50 of test peptide) (ratio to standard peptide) (HLA-A*1101 (human) [21]): 0.0001 | relative binding ratio (IC50 of standard peptide / IC50 of test peptide) (ratio to standard peptide) (HLA-A*0301 (human) [22]): 0.0003

B18: … (HPV18 E7, position 63, 10 amino acids) (peptide)
peptide: CMCCKCEARI
modifications: not checked
relative binding ratio (IC50 of standard peptide / IC50 of test peptide) (HLA-A*2402 (human)): 0.0001

B19: HPV31 E6 peptide … (position 109, 9 amino acids) (peptide)
peptide: PLCPEEKQR
modifications: not checked
relative binding ratio (IC50 of standard peptide / IC50 of test peptide) (ratio to standard peptide) (HLA-A*1101 (human) [21]): 0.0005 | relative binding ratio (IC50 of standard peptide / IC50 of test peptide) (ratio to standard peptide) (HLA-A*0301 (human) [22]): 0.0002

B20: HPV16 E1 peptide … (position 11, 9 amino acids) (peptide)
peptide: EGTGCNGWF
modifications: not checked
binding affinity ratio relative to the standard peptide (IC50 standard / IC50 test) (HLA-A*0301 (human) [14]): 0.0008

B21: HPV16 E1 204 … (peptide)
peptide: KAAMLAKFK
modifications: not checked
binding affinity ratio (IC50 of standard peptide / IC50 of test peptide) (ratio to standard peptide) (HLA-A*0301 (human) [16]): 0.11 | relative binding ratio (IC50 of standard peptide / IC50 of test peptide) (HLA-A*1101 (human) [17]): 0.18

B22: HPV45 E1 peptide … (position 327, 9 amino acids) (peptide)
peptide: GDTPEWIQR
modifications: not checked
relative binding ratio (IC50 of standard peptide / IC50 of test peptide) (HLA-A*0301 (human) [19]): 0.0008

B23: HPV16 E6 80 … (peptide)
peptide: ISEYRHYCY
modifications: not checked
binding affinity ratio (IC50 of standard peptide / IC50 of test peptide) (HLA-A*0101 (human) [23]; remark: other sources report otherwise): 0.31

B24: HPV16 E7 86 TLGIVCPI (peptide)
peptide: TLGIVCPI
modifications: not checked
binding affinity ratio (IC50 of standard peptide / IC50 of test peptide) (HLA-A*0201 (human) [24]): 0.15 | binding affinity ratio (IC50 of standard peptide / IC50 of test peptide) (HLA-A*0203 (human)): 0.0005 | binding affinity ratio (IC50 of standard peptide / IC50 of test peptide) (HLA-A*0206 (human)): 0.54

B25: HPV45 E7 peptide … (position 95, 9 amino acids) (peptide)
peptide: LSFVCPWCA
modifications: not checked
relative binding ratio (IC50 of the standard peptide / IC50 of the test peptide) (HLA-A*0301 (human) [1]): 0.0005

B26: … (HPV16 E6, position 79, 10 amino acids) (peptide)
peptide: KISEYRHYCY
modifications: not checked
relative binding ratio (IC50 of standard peptide / IC50 of test peptide) (HLA-A*0101 (human) [20]): 0.009 | binding affinity ratio (IC50 of standard peptide / IC50 of test peptide) (ratio to standard peptide) (HLA-A*1101 (human) [25]): 0.0038

B27: HPV16 E1 peptide … (position 11, 10 amino acids) (peptide)
peptide: EGTGCNGWFY
modifications: not checked
binding affinity ratio relative to the standard peptide (IC50 standard / IC50 test) (HLA-A*0301 (human) [14]): 0.0005

B28: HPV16 E6 79 … (peptide)
peptide: KISEYRHYCY
modifications: not checked
binding affinity ratio (IC50 of standard peptide / IC50 of test peptide) (HLA-A*0101 (human) [23]): 0.009

B29: HPV18 E1 peptide … (position 570, 9 amino acids) (peptide)
peptide: LLTTNIHPA
modifications: not checked
relative binding ratio (IC50 of standard peptide / IC50 of test peptide) (HLA-A*0201 (human) [26]): 0.18

B30: … (HPV18 E6, position 80, 11 amino acids) (peptide)
peptide: HYSDSVYGDTL
modifications: not checked
relative binding ratio (IC50 of standard peptide / IC50 of test peptide) (HLA-A*2402 (human)): 0.0069

B31: HPV16 E7 11 … (peptide)
peptide: YMLDLQPETT
modifications: not checked
binding affinity ratio (IC50 of standard peptide / IC50 of test peptide) (HLA-A*0201 (human) [24]): 0.15 | binding affinity ratio (IC50 of standard peptide / IC50 of test peptide) (HLA-A*0203 (human)): 0.0001 | binding affinity ratio (IC50 of standard peptide / IC50 of test peptide) (HLA-A*0206 (human)): 1.7

B32: HPV16 E1 272 … (peptide)
peptide: GMVVLLLVR
modifications: not checked
binding affinity ratio (IC50 of standard peptide / IC50 of test peptide) (ratio to standard peptide) (HLA-A*0301 (human) [16]): 0.0036 | relative binding ratio (IC50 of standard peptide / IC50 of test peptide) (HLA-A*1101 (human) [17]): 0.0082
